Laboratory results as given in article PMC11535432.

Target: inactive mutant of SARS-CoV-2 main protease M^pro (His41Ala, Cys145Ala) (SARS-CoV-2)
Assay: native MS

| Substance | stoichiometry N (peptide per M^pro dimer) |
| --- | --- |
| substrate peptide nsp5/6 (11-mer, P6 to P5') (from UniProt P0DTD1 3564-3574) | < 2 |
| substrate peptide nsp14/15 (11-mer, P6 to P5') (from UniProt P0DTD1 6447-6457) | < 2 |
